Measurements from article PMC6561022, “β-Lactam Antibiotics Enhance the Pathogenicity of Methicillin-Resistant Staphylococcus aureus via SarA-Controlled Lipoprotein-Like Cluster Expression”.

B1: lpl-P (lpl cluster promoter, SarA box) (dsDNA)
DNA 1: CCACGAGGATTTAATCATAAAATTTCCTCTAGTATTATTAATATTGGAATTTGAAC
DNA 2: GTTCAAATTCCAATATTAATAATACTAGAGGAAATTTTATGATTAAATCCTCGTGG
B2: lpl-PM (GC-rich SarA box mutant) (dsDNA)
DNA 1: CCACGAGGGGGGGGGCGGGGGGGTTCCTCTAGTATTATTAATATTGGAATTTGAAC
DNA 2: GTTCAAATTCCAATATTAATAATACTAGAGGAACCCCCCCGCCCCCCCCCTCGTGG

Target: T1, SarA-his (Staphylococcus aureus N315, UniProt Q7A732 1-124)
T1 sequence: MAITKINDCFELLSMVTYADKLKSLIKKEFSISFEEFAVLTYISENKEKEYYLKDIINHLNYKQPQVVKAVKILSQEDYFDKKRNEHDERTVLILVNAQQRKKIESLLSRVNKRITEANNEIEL
Test: EMSA; SarA-his 0-240 pM (so in the source), 10 pmol DNA; 10 mM HEPES pH 7.6, 1 mM EDTA, 2 mM DTT, 50 mM KCl, 0.05% Triton X-100, 5% glycerol; 20 min room temperature; […]
Settings: protein: recombinant; tags: N-terminal His6 (pET28a); chain copies: 2; label: none (GelRed stain); blunt

| Binder | binding result |
| --- | --- |
| B1 | binds |
| B2 | no binding |
